Source: publication PMC7367873, “Dissecting the sequence determinants for dephosphorylation by the catalytic subunits of phosphatases PP1 and PP2A” (Nature Communications, 2020)

B1: UBAP2L (protein, UniProt Q14157 1-1087, looked up)
Ubiquitin-associated protein …: MMTSVGTNRARGNWEQPQNQNQTQHKQRPQATAEQIRLAQMISDHNDADFEEKVKQLIDITGKNQDECVIALHDCNGDVNRAINVLLEGNPDTHSWEMVGKKKGVSGQKDGGQTESNEEGKENRDRDRDYSRRRGGPPRRGRGASRGREFRGQENGLDGTKSGGPSGRGTERGRRGRGRGRGGSGRRGGRFSAQGMGTFNPADYAEPANTDDNYGNSSGNTWNNTGHFEPDDGTSAWRTATEEWGTEDWNEDLSETKIFTASNVSSVPLPAENVTITAGQRIDLAVLLGKTPSTMENDSSNLDPSQAPSLAQPLVFSNSKQTAISQPASGNTFSHHSMVSMLGKGFGDVGEAKGGSTTGSQFLEQFKTAQALAQLAAQHSQSGSTTTSSWDMGSTTQSPSLVQYDLKNPSDSAVHSPFTKRQAFTPSSTMMEVFLQEKSPAVATSTAAPPPPSSPLPSKSTSAPQMSPGSSDNQSSSPQPAQQKLKQQKKKASLTSKIPALAVEMPGSADISGLNLQFGALQFGSEPVLSDYESTPTTSASSSQAPSSLYTSTASESSSTISSNQSQESGYQSGPIQSTTYTSQNNAQGPLYEQRSTQTRRYPSSISSSPQKDLTQAKNGFSSVQATQLQTTQSVEGATGSAVKSDSPSTSSIPPLNETVSAASLLTTTNQHSSSLGGLSHSEEIPNTTTTQHSSTLSTQQNTLSSSTSSGRTSTSTLLHTSVESEANLHSSSSTFSTTSSTVSAPPPVVSVSSSLNSGSSLGLSLGSNSTVTASTRSSVATTSGKAPPNLPPGVPPLLPNPYIMAPGLLHAYPPQVYGYDDLQMLQTRFPLDYYSIPFPTPTTPLTGRDGSLASNPYSGDLTKFGRGDASSPAPATTLAQPQQNQTQTHHTTQQTFLNPALPPGYSYTSLPYYTGVPGLPSTFQYGPAVFPVAPTSSKQHGVNVSVNASATPFQQPSGYGSHGYNTGVSVTSSNTGVPDISGSVYSKTQQSFEKQGFHSGTPAASFNLPSALGSGGPINPATAAAYPPAPFMHILTPHQQPHSQILHHHLQQDGQTGSGQRSQTSSIPQKPQTNKSAYNSYSWGAN
B2: MOV10 (protein, UniProt Q9HCE1 1-1003, looked up)
Helicase MOV-10: MPSKFSCRQLREAGQCFESFLVVRGLDMETDRERLRTIYNRDFKISFGTPAPGFSSMLYGMKIANLAYVTKTRVRFFRLDRWADVRFPEKRRMKLGSDISKHHKSLLAKIFYDRAEYLHGKHGVDVEVQGPHEARDGQLLIRLDLNRKEVLTLRLRNGGTQSVTLTHLFPLCRTPQFAFYNEDQELPCPLGPGECYELHVHCKTSFVGYFPATVLWELLGPGESGSEGAGTFYIARFLAAVAHSPLAAQLKPMTPFKRTRITGNPVVTNRIEEGERPDRAKGYDLELSMALGTYYPPPRLRQLLPMLLQGTSIFTAPKEIAEIKAQLETALKWRNYEVKLRLLLHLEELQMEHDIRHYDLESVPMTWDPVDQNPRLLTLEVPGVTESRPSVLRGDHLFALLSSETHQEDPITYKGFVHKVELDRVKLSFSMSLLSRFVDGLTFKVNFTFNRQPLRVQHRALELTGRWLLWPMLFPVAPRDVPLLPSDVKLKLYDRSLESNPEQLQAMRHIVTGTTRPAPYIIFGPPGTGKTVTLVEAIKQVVKHLPKAHILACAPSNSGADLLCQRLRVHLPSSIYRLLAPSRDIRMVPEDIKPCCNWDAKKGEYVFPAKKKLQEYRVLITTLITAGRLVSAQFPIDHFTHIFIDEAGHCMEPESLVAIAGLMEVKETGDPGGQLVLAGDPRQLGPVLRSPLTQKHGLGYSLLERLLTYNSLYKKGPDGYDPQFITKLLRNYRSHPTILDIPNQLYYEGELQACADVVDRERFCRWAGLPRQGFPIIFHGVMGKDEREGNSPSFFNPEEAATVTSYLKLLLAPSSKKGKARLSPRSVGVISPYRKQVEKIRYCITKLDRELRGLDDIKDLKVGSVEEFQGQERSVILISTVRSSQSFVQLDLDFNLGFLKNPKRFNVAVTRAKALLIIVGNPLLLGHDPDWKVFLEFCKENGGYTGCPFPAKLDLQQGQNLLQGLSKLSPSTSGPHSHDYLPQEREGEGGLSLQVEPEWRNEL
B3: LRRC47 (protein, UniProt Q8N1G4 2-583, looked up)
Leucine-rich …: AAAAVSESWPELELAERERRRELLLTGPGLEERVRAAGGQLPPRLFTLPLLHYLEVSGCGSLRAPGPGLAQGLPQLHSLVLRRNALGPGLSPELGPLPALRVLDLSGNALEALPPGQGLGPAEPPGLPQLQSLNLSGNRLRELPADLARCAPRLQSLNLTGNCLDSFPAELFRPGALPLLSELAAADNCLRELSPDIAHLASLKTLDLSNNQLSEIPAELADCPKLKEINFRGNKLRDKRLEKMVSGCQTRSILEYLRVGGRGGGKGKGRAEGSEKEESRRKRRERKQRREGGDGEEQDVGDAGRLLLRVLHVSENPVPLTVRVSPEVRDVRPYIVGAVVRGMDLQPGNALKRFLTSQTKLHEDLCEKRTAATLATHELRAVKGPLLYCARPPQDLKIVPLGRKEAKAKELVRQLQLEAEEQRKQKKRQSVSGLHRYLHLLDGNENYPCLVDADGDVISFPPITNSEKTKVKKTTSDLFLEVTSATSLQICKDVMDALILKMAEMKKYTLENKEEGSLSDTEADAVSGQLPDPTTNPSAGKDGPSLLVVEQVRVVDLEGSLKVVYPSKADLATAPPHVTVVR
B4: CAV1 (protein, UniProt Q03135 2-178, looked up)
Caveolin-1: SGGKYVDSEGHLYTVPIREQGNIYKPNNKAMADELSEKQVYDAHTKEIDLVNRDPKHLNDDVVKIDFEDVIAEPEGTHSFDGIWKASFTTFTVTKYWFYRLLSALFGIPMALIWGIYFAILSFLHIWAVVPCIKSFLIEIQCISRVYSIYVHTVCDPLFEAVGKIFSNVRINLQKEI
B5: PNPLA6 (protein, UniProt Q8IY17 1-1375, looked up)
Patatin-like phospholipase …: MEAPLQTGMMGTSSHGLATNSSGAKVAERDGFQDVLAPGEGSAGRICGAQPVPFVPQVLGVMIGAGVAVVVTAVLILLVVRRLRVPKTPAPDGPRYRFRKRDKVLFYGRKIMRKVSQSTSSLVDTSVSATSRPRMRKKLKMLNIAKKILRIQKETPTLQRKEPPPAVLEADLTEGDLANSHLPSEVLYMLKNVRVLGHFEKPLFLELCRHMVFQRLGQGDYVFRPGQPDASIYVVQDGLLELCLPGPDGKECVVKEVVPGDSVNSLLSILDVITGHQHPQRTVSARAARDSTVLRLPVEAFSAVFTKYPESLVRVVQIIMVRLQRVTFLALHNYLGLTNELFSHEIQPLRLFPSPGLPTRTSPVRGSKRMVSTSATDEPRETPGRPPDPTGAPLPGPTGDPVKPTSLETPSAPLLSRCVSMPGDISGLQGGPRSDFDMAYERGRISVSLQEEASGGSLAAPARTPTQEPREQPAGACEYSYCEDESATGGCPFGPYQGRQTSSIFEAAKQELAKLMRIEDPSLLNSRVLLHHAKAGTIIARQGDQDVSLHFVLWGCLHVYQRMIDKAEDVCLFVAQPGELVGQLAVLTGEPLIFTLRAQRDCTFLRISKSDFYEIMRAQPSVVLSAAHTVAARMSPFVRQMDFAIDWTAVEAGRALYRQGDRSDCTYIVLNGRLRSVIQRGSGKKELVGEYGRGDLIGVVEALTRQPRATTVHAVRDTELAKLPEGTLGHIKRRYPQVVTRLIHLLSQKILGNLQQLQGPFPAGSGLGVPPHSELTNPASNLATVAILPVCAEVPMVAFTLELQHALQAIGPTLLLNSDIIRARLGASALDSIQEFRLSGWLAQQEDAHRIVLYQTDASLTPWTVRCLRQADCILIVGLGDQEPTLGQLEQMLENTAVRALKQLVLLHREEGAGPTRTVEWLNMRSWCSGHLHLRCPRRLFSRRSPAKLHELYEKVFSRRADRHSDFSRLARVLTGNTIALVLGGGGARGCSHIGVLKALEEAGVPVDLVGGTSIGSFIGALYAEERSASRTKQRAREWAKSMTSVLEPVLDLTYPVTSMFTGSAFNRSIHRVFQDKQIEDLWLPYFNVTTDITASAMRVHKDGSLWRYVRASMTLSGYLPPLCDPKDGHLLMDGGYINNLPADIARSMGAKTVIAIDVGSQDETDLSTYGDSLSGWWLLWKRLNPWADKVKVPDMAEIQSRLAYVSCVRQLEVVKSSSYCEYLRPPIDCFKTMDFGKFDQIYDVGYQYGKAVFGGWSRGNVIEKMLTDRRSTDLNESRRADVLAFPSSGFTDLAEIVSRIEPPTSYVSDGCADGEESDCLTEYEEDAGPDCSRDEGGSPEGASPSTASEMEEEKSILRQRRCLPQEPPGSATDA
B6: ASPH (protein, UniProt Q12797 1-758, looked up)
Aspartyl/asparaginyl …: MAQRKNAKSSGNSSSSGSGSGSTSAGSSSPGARRETKHGGHKNGRKGGLSGTSFFTWFMVIALLGVWTSVAVVWFDLVDYEEVLGKLGIYDADGDGDFDVDDAKVLLGLKERSTSEPAVPPEEAEPHTEPEEQVPVEAEPQNIEDEAKEQIQSLLHEMVHAEHVEGEDLQQEDGPTGEPQQEDDEFLMATDVDDRFETLEPEVSHEETEHSYHVEETVSQDCNQDMEEMMSEQENPDSSEPVVEDERLHHDTDDVTYQVYEEQAVYEPLENEGIEITEVTAPPEDNPVEDSQVIVEEVSIFPVEEQQEVPPETNRKTDDPEQKAKVKKKKPKLLNKFDKTIKAELDAAEKLRKRGKIEEAVNAFKELVRKYPQSPRARYGKAQCEDDLAEKRRSNEVLRGAIETYQEVASLPDVPADLLKLSLKRRSDRQQFLGHMRGSLLTLQRLVQLFPNDTSLKNDLGVGYLLIGDNDNAKKVYEEVLSVTPNDGFAKVHYGFILKAQNKIAESIPYLKEGIESGDPGTDDGRFYFHLGDAMQRVGNKEAYKWYELGHKRGHFASVWQRSLYNVNGLKAQPWWTPKETGYTELVKSLERNWKLIRDEGLAVMDKAKGLFLPEDENLREKGDWSQFTLWQQGRRNENACKGAPKTCTLLEKFPETTGCRRGQIKYSIMHPGTHVWPHTGPTNCRLRMHLGLVIPKEGCKIRCANETKTWEEGKVLIFDDSFEHEVWQDASSFRLIFIVDVWHPELTPQQRRSLPAI
B7: MISP (protein, UniProt Q8IVT2 1-679, looked up)
Mitotic interactor and …: MDRVTRYPILGIPQAHRGTGLVLDGDTSYTYHLVCMGPEASGWGQDEPQTWPTDHRAQQGVQRQGVSYSVHAYTGQPSPRGLHSENREDEGWQVYRLGARDAHQGRPTWALRPEDGEDKEMKTYRLDAGDADPRRLCDLERERWAVIQGQAVRKSSTVATLQGTPDHGDPRTPGPPRSTPLEENVVDREQIDFLAARQQFLSLEQANKGAPHSSPARGTPAGTTPGASQAPKAFNKPHLANGHVVPIKPQVKGVVREENKVRAVPTWASVQVVDDPGSLASVESPGTPKETPIEREIRLAQEREADLREQRGLRQATDHQELVEIPTRPLLTKLSLITAPRRERGRPSLYVQRDIVQETQREEDHRREGLHVGRASTPDWVSEGPQPGLRRALSSDSILSPAPDARAADPAPEVRKVNRIPPDAYQPYLSPGTPQLEFSAFGAFGKPSSLSTAEAKAATSPKATMSPRHLSESSGKPLSTKQEASKPPRGCPQANRGVVRWEYFRLRPLRFRAPDEPQQAQVPHVWGWEVAGAPALRLQKSQSSDLLERERESVLRREQEVAEERRNALFPEVFSPTPDENSDQNSRSSSQASGITGSYSVSESPFFSPIHLHSNVAWTVEDPVDSAPPGQRKKEQWYAGINPSDGINSEVLEAIRVTRHKNAMAERWESRIYASEEDD

system: GFP-14-3-3β; assay: GFP-14-3-3β co-IP with LC-MS/MS, untreated GFP-14-3-3β versus GFP control (14-3-3 interactome); type: binding, human; conditions: untreated vs GFP; LFQ intensities; 3 replicates each

Going from B1 to B2, the “Difference (log2), untreated vs GFP” value rises from -0.6949 log2 to 0.6155 log2.

First: B3
Second: B4
The “Difference (log2), untreated vs GFP” value of the first is higher: 1.1154 log2 for the first, 0.3485 log2 for the second.

In the case of B5, the “Difference (log2), untreated vs GFP” value is reported as 1.692 log2.

same assay, conditions: untreated vs GFP; label-free quantification

First: B6
Second: B7
The “Difference (log2), untreated vs GFP” value of the first is higher: 0.9544 log2 for the first, -0.2245 log2 for the second.

system: GFP-14-3-3β and its binding proteins; assay: GFP-14-3-3β co-IP with LC-MS/MS label-free quantification, untreated versus PP1c-treated; set-up: species or system human; conditions: PP1 vs untreated; LFQ intensities; 3 replicates each

First: B1
Second: B2
The “Difference (log2), PP1 vs untreated” value of the first is higher: 0.7375 log2 for the first, 0.6679 log2 for the second.

First: B3
Second: B4
The “Difference (log2), PP1 vs untreated” value of the first is higher: 0.6799 log2 for the first, 0.6719 log2 for the second.

For B5, the “Difference (log2), PP1 vs untreated” value was 0.7127 log2.

same assay, conditions: PP1 vs untreated; label-free quantification

Going from B6 to B7, the “Difference (log2), PP1 vs untreated” value falls from 0.7413 log2 to 0.7397 log2.
